Measured values from PMC11250742, “Preclinical evaluation of CXCR4 peptides for targeted radionuclide therapy in glioblastoma” (EJNMMI Radiopharmacy and Chemistry, 2024).
Where two headings read alike, the source gives them in different places. Where a SMILES comes first, the peptide text is derived from it. Bridges are numbered along the chain shown (N, C = ends). [ ]: non-standard residue; d: D form. The star is where a group is joined. DOTA = O=C(O)CN1CCN(CC(=O)O)CCN(CC(=O)*)CCN(CC(=O)O)CC1; 2Nal = N[C@@H](Cc1ccc2ccccc2c1)C(=O)O; Cit = NC(=O)NCCC[C@H](N)C(=O)O

Assay: Ex vivo biodistribution in U87-CXCR4 + tumour-bearing mice
Design: species or system BALB/c nude mice
Settings: mouse; for tissue to tissue ratio at 24 h / tissue uptake dose at 1 h / tissue uptake dose at 4 h / tissue uptake dose at 24 h / tissue uptake dose at 168 h / SUV at 1 h / SUV at 4 h / SUV at 24 h / SUV at 168 h: female, BALB/c nude, iv, 1.5 MBq, total radioactivity; for tissue uptake dose at 1 h / tissue uptake dose at 4 h / tissue uptake dose at 24 h / tissue uptake dose at 168 h: %IA
Experimental: For the generation of the subcutaneous GBM xenograft model, BALB/c nude mice (between 8 and 12 weeks old) were anesthetised with 2.5% isoflurane in O2 at a flow rate of 0.2 L/min and subcutaneously injected on the right shoulder with 3 × 10^6 U87-CXCR4 + cells resuspended in a 1:1 mixture of PBS and Cultrex BME (R&D Systems, Bio-Techne, Minnesota, US). Tumours were left to grow for ten days before the start of the experiment. Tumour volumes were calculated as length × width × height. Three days before the experiment, the mean tumour volumes of all mice were 255 ± 119 mm^3.
The pharmacokinetic profile of [^177Lu]Lu-POL3026 was evaluated in female BALB/c nude mice with subcutaneous xenografts of U87-CXCR4 + tumours.
All animals were anesthetised with 2.5% isoflurane in O2 at a flow rate of 1 L/min and intravenously (IV) injected with 1.5 MBq of [^177Lu]Lu-POL3026 via a tail vein (radiolabelled with a Am of 53.1 ± 0.55 MBq/nmol). The mice were sacrificed by an overdose of pentobarbital (200 µL of 60 mg/mL) at 1-, 4-, 24- and 168 h post-injection (p.i.) (n = 3–4 per time point), followed by cardiac puncture. Organs of interest were collected in tarred tubes and weighed. The activity in the different organs was measured in the automated gamma counter described above. For the calculation of the total activity in the blood, bone, and muscle, the masses were assumed to be 7, 12 and 40% of the total body mass, respectively. Data is shown as standardised uptake value (SUV), calculated using the following equation:
SUV = [Activity in organ (cpm) / Organ weight (g)] / [(Injected activity (cpm) / Total body weight (g)].

N=C(N)NCCC[C@@H]1NC(=O)[C@@H]2CSSC[C@H](NC(=O)[C@H](Cc3ccc4ccccc4c3)NC(=O)[C@H](CCCNC(=N)N)NC(=O)[C@H](CCCNC(=N)N)NC(=O)[C@H]3CCCN3C(=O)CNC1=O)C(=O)N[C@@H](Cc1ccc(O)cc1)C(=O)N[C@@H](CCC(N)=O)C(=O)N[C@@H](CCCCNC(=O)CN1CCN(CC(=O)O)CCN(CC(=O)O)CCN(CC(=O)O)CC1)C(=O)N1CCC[C@@H]1C(=O)N1CCC[C@H]1C(=O)N[C@@H](Cc1ccc(O)cc1)C(=O)N[C@@H](CCCNC(=N)N)C(=O)N[C@@H](CCCNC(N)=O)C(=O)N2 [[^177Lu]Lu-DOTA-POL3026, metal not drawn] (cyclo(RR[2Nal]CYQK(DOTA)[dP]PYR[Cit]CRG[dP]); disulfide 4-13)
tissue to tissue ratio at 24 h (24 h p.i., read-out: tumour-to-kidney ratio): 0.7 | tissue uptake dose at 1 h (Blood): 15.2 %ID | tissue uptake dose at 4 h (Blood): 3.73 %ID | tissue uptake dose at 24 h (Blood): 0.14 %ID | tissue uptake dose at 168 h (Blood): 0.04 %ID | tissue uptake dose at 1 h (Blood on tissue paper): 3.79 %ID | tissue uptake dose at 4 h (Blood on tissue paper): 1.56 %ID | tissue uptake dose at 24 h (Blood on tissue paper): 0.51 %ID | tissue uptake dose at 168 h (Blood on tissue paper): 0.2 %ID | tissue uptake dose at 1 h (Bone): 8.81 %ID | tissue uptake dose at 4 h (Bone): 14.4 %ID | tissue uptake dose at 24 h (Bone): 7.05 %ID | tissue uptake dose at 168 h (Bone): 2.14 %ID | tissue uptake dose at 1 h (Brain): 0.09 %ID | tissue uptake dose at 4 h (Brain): 0.03 %ID | tissue uptake dose at 24 h (Brain): 0.01 %ID | tissue uptake dose at 1 h (Carcass): 28.5 %ID | tissue uptake dose at 4 h (Carcass): 18.3 %ID | tissue uptake dose at 24 h (Carcass): 12.8 %ID | tissue uptake dose at 168 h (Carcass): 3.02 %ID | tissue uptake dose at 1 h (Heart): 0.71 %ID | tissue uptake dose at 4 h (Heart): 0.22 %ID | tissue uptake dose at 24 h (Heart): 0.09 %ID | tissue uptake dose at 168 h (Heart): 0.01 %ID | tissue uptake dose at 1 h (Intestines): 5.63 %ID | tissue uptake dose at 4 h (Intestines): 3.76 %ID | tissue uptake dose at 24 h (Intestines): 2.14 %ID | tissue uptake dose at 168 h (Intestines): 0.59 %ID | tissue uptake dose at 1 h (Kidneys): 4.03 %ID | tissue uptake dose at 4 h (Kidneys): 4.99 %ID | tissue uptake dose at 24 h (Kidneys): 3.65 %ID | tissue uptake dose at 168 h (Kidneys): 0.61 %ID | tissue uptake dose at 1 h (Liver): 31.6 %ID | tissue uptake dose at 4 h (Liver): 39.8 %ID | tissue uptake dose at 24 h (Liver): 39.2 %ID | tissue uptake dose at 168 h (Liver): 14.2 %ID | tissue uptake dose at 1 h (Lungs): 2.72 %ID | tissue uptake dose at 4 h (Lungs): 1.87 %ID | tissue uptake dose at 24 h (Lungs): 0.59 %ID | tissue uptake dose at 168 h (Lungs): 0.06 %ID | tissue uptake dose at 1 h (Muscle): 9.87 %ID | tissue uptake dose at 4 h (Muscle): 4.89 %ID | tissue uptake dose at 24 h (Muscle): 3.78 %ID | tissue uptake dose at 168 h (Muscle): 0.57 %ID | tissue uptake dose at 1 h (Pancreas): 0.3 %ID | tissue uptake dose at 4 h (Pancreas): 0.16 %ID | tissue uptake dose at 24 h (Pancreas): 0.1 %ID | tissue uptake dose at 168 h (Pancreas): 0.02 %ID | tissue uptake dose at 1 h (Spleen): 4.01 %ID | tissue uptake dose at 4 h (Spleen): 2.02 %ID | tissue uptake dose at 24 h (Spleen): 1.61 %ID | tissue uptake dose at 168 h (Spleen): 0.72 %ID | tissue uptake dose at 1 h (Stomach): 0.35 %ID | tissue uptake dose at 4 h (Stomach): 0.31 %ID | tissue uptake dose at 24 h (Stomach): 0.17 %ID | tissue uptake dose at 168 h (Stomach): 0.03 %ID | tissue uptake dose at 1 h (Tail): 2.05 %ID | tissue uptake dose at 4 h (Tail): 1.75 %ID | tissue uptake dose at 24 h (Tail): 1.7 %ID | tissue uptake dose at 168 h (Tail): 0.53 %ID | tissue uptake dose at 1 h (Tumour): 1.54 %ID | tissue uptake dose at 4 h (Tumour): 1.01 %ID | tissue uptake dose at 24 h (Tumour): 1.46 %ID | tissue uptake dose at 168 h (Tumour): 0.29 %ID | SUV at 1 h (Blood): 2.17 SUV | SUV at 4 h (Blood): 0.53 SUV | SUV at 24 h (Blood): 0.02 SUV | SUV at 1 h (Bone): 0.73 SUV | SUV at 4 h (Bone): 1.2 SUV | SUV at 24 h (Bone): 0.59 SUV | SUV at 168 h (Bone): 0.18 SUV | SUV at 1 h (Brain): 0.05 SUV | SUV at 4 h (Brain): 0.02 SUV | SUV at 24 h (Brain): 0.01 SUV | SUV at 1 h (Heart): 1.33 SUV | SUV at 4 h (Heart): 0.46 SUV | SUV at 24 h (Heart): 0.17 SUV | SUV at 168 h (Heart): 0.02 SUV | SUV at 1 h (Kidneys): 2.57 SUV | SUV at 4 h (Kidneys): 3.34 SUV | SUV at 24 h (Kidneys): 2.41 SUV | SUV at 168 h (Kidneys): 0.38 SUV | SUV at 1 h (Liver): 5.27 SUV | SUV at 4 h (Liver): 7.32 SUV | SUV at 24 h (Liver): 6.46 SUV | SUV at 168 h (Liver): 2.3 SUV | SUV at 1 h (Lungs): 4.74 SUV | SUV at 4 h (Lungs): 3.24 SUV | SUV at 24 h (Lungs): 1.02 SUV | SUV at 168 h (Lungs): 0.08 SUV | SUV at 1 h (Muscle): 0.25 SUV | SUV at 4 h (Muscle): 0.12 SUV | SUV at 24 h (Muscle): 0.09 SUV | SUV at 168 h (Muscle): 0.01 SUV | SUV at 1 h (Pancreas): 0.3 SUV | SUV at 4 h (Pancreas): 0.19 SUV | SUV at 24 h (Pancreas): 0.13 SUV | SUV at 168 h (Pancreas): 0.02 SUV | SUV at 1 h (Spleen): 8.67 SUV | SUV at 4 h (Spleen): 6.77 SUV | SUV at 24 h (Spleen): 4.83 SUV | SUV at 168 h (Spleen): 1.84 SUV | SUV at 1 h (Tumour): 1.39 SUV | SUV at 4 h (Tumour): 1.74 SUV | SUV at 24 h (Tumour): 1.79 SUV | SUV at 168 h (Tumour): 0.32 SUV | tissue to tissue ratio at 24 h (tumour-to-blood ratio): 89 | tissue to tissue ratio at 24 h (tumour-to-liver ratio): 0.3 | tissue to tissue ratio at 24 h (tumour-to-muscle ratio): 19 | %IA, Brain: 0.00 %IA | SUV, Blood: 0.00 | SUV, Brain: 0.00 | SUV, Tumour: 1.9
